What was measured:
poly-L-lysine [1] = test: SPR imaging, PLL-coated Al microarray, chemokines spiked in artificial urine matrix; difference against CXCL10 as reference
poly-L-lysine [2] = test: SPR imaging, PLL-coated Al microarray, chemokines in PBS buffer; difference against CXCL10 as reference
[3] = target: biotinylated bovine serum albumin (bovine) (UniProt P02769); test: SPR angular scanning on Al/Al2O3 film, streptavidin 500 µg/mL in 1xPBS buffer
[4] = target: biotinylated bovine serum albumin (bovine) (UniProt P02769); test: SPR angular scanning on Al/Al2O3 film, streptavidin 500 µg/mL spiked in undiluted human serum, serum-only control subtracted

Sequence of biotinylated bovine serum albumin (bovine) (P02769 25-607 limits assumed, form in doubt): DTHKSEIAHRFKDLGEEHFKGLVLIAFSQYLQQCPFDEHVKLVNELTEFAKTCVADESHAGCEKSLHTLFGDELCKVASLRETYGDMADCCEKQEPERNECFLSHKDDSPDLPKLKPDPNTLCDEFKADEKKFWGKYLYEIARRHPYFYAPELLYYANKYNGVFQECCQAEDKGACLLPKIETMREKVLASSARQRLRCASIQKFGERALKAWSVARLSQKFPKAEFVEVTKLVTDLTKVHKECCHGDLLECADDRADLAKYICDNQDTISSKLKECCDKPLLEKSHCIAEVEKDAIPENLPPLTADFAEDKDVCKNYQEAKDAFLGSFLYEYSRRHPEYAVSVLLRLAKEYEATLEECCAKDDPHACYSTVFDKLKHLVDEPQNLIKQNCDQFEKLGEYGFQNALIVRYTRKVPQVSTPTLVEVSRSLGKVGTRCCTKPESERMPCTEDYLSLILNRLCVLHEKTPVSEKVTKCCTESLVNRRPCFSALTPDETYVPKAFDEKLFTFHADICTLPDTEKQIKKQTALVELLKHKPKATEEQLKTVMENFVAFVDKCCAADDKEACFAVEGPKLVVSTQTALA

relative difference in response between CXCL10 and CXCL8 (kinetic reflectivity shift) (poly-L-lysine [1])	relative difference in response between CXCL10 and CXCL8 (kinetic reflectivity shift) (poly-L-lysine [2])	specific binding signal (SPR angular shift) [3]	specific binding signal (SPR angular shift) [4]	Substance
0.68%	0.25%	–	–	CXCL8 (from UniProt P10145 29-99) (ligand)
–	–	0.21 °	0.17 °	streptavidin (from UniProt P22629 37-163)
